Laboratory results from US20260071002A1 (Hoffmann-La Roche, published 2026).

Columns and labels:
[1] = biological target: T1, human CEACAM1 (human, UniProt P13688 35-526); test: FACS on CHO cells overexpressing human CEACAM1
T1 construct: whole, on cells; also called CHO-CEACAM1
T1 sequence (looked up): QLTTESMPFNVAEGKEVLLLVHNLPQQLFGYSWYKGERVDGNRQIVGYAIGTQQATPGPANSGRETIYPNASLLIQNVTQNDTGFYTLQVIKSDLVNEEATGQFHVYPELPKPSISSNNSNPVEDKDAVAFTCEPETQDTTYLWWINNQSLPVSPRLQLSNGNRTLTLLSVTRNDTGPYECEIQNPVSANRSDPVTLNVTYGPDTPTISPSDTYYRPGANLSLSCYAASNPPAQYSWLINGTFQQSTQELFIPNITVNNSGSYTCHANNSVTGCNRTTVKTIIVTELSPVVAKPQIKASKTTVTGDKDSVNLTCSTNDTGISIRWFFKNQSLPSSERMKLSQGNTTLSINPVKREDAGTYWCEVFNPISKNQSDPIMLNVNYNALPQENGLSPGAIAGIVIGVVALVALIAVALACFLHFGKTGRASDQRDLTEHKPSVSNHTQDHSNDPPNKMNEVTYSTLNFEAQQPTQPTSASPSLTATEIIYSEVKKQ
Protocol: (§1) Viability of CHO-CEACAM1 (CHO cells overexpressing human CEACAM1) and CHO-CEACAM6 (CHO cells overexpressing human CEACAM6) cells was checked. Then 100 μl of re-suspended target cells were seeded into a U-bottom plate (100′000 cells/well). The antibodies were diluted in FACS buffer. The plates were centrifuged for 4 min at 400×g and supernatant was removed. Then 25 µl/well of the diluted antibodies were added to the cells. The cells were incubated for 45 min at 4° C. After the incubation, cells were washed twice and 25 μl/well of diluted (1/100 in FACS buffer) PE anti-human Fc secondary antibody (Jackson Immuno Research, #109-116-170) or the directly labeled CD66 antibody (Clone B1.1/CD66, BD Bioscience, #551480) was added to the cells. The cells were incubated for 45 min at 4° C. After the incubation, cells were washed twice. Then cells were re-suspended in 150 μl/well of FACS buffer. Cell binding was measured on the BD LSRFortessa Flow Cytometer, the same day.

[2] = biological target: T2, human CEACAM6 (human, UniProt P40199 35-320); test: FACS on CHO cells overexpressing human CEACAM6
T2 construct: whole, on cells; also called CHO-CEACAM6
T2 sequence (looked up): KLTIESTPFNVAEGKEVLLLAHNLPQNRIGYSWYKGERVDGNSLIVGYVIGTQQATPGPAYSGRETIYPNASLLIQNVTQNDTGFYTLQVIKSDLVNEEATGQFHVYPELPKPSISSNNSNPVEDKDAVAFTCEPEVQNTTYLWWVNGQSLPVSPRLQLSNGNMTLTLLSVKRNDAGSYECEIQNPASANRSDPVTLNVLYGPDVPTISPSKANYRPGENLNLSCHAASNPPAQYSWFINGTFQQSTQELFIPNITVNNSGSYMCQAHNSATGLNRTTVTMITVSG
Protocol: as §1

[3] = biological target: T3, human CEACAM5 (human, UniProt P06731 35-685); test: FACS on MKN-45 cells expressing human CEACAM5
T3 construct: whole, on cells; Target on MKN-45 (DSMZ ACC409) and LS180 (ATCC CL-187) cells; also called carcinoembryonic antigen-related cell adhesion molecule 5; CD66e
T3 sequence (looked up): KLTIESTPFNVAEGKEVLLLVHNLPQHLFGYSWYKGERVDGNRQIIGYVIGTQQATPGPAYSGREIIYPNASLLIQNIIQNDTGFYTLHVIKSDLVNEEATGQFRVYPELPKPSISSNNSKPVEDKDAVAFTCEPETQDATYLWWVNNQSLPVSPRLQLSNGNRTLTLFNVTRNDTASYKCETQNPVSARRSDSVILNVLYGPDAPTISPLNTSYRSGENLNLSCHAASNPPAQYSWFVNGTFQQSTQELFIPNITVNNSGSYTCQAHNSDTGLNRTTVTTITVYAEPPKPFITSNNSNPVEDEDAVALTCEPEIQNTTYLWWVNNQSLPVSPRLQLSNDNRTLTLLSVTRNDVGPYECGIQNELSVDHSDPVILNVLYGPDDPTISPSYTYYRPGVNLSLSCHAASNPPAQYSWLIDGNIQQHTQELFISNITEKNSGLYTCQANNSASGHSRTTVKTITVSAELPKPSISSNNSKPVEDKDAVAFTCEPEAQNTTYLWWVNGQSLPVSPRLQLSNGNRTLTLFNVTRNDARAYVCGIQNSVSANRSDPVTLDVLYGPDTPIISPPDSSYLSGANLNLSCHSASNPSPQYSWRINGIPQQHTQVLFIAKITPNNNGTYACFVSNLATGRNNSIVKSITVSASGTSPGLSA
Protocol: 10 μl of a 1×10⁴ MKN-45 (DSMZ ACC409) cell suspension in assay buffer was seeded in all Wells of a 384 well polypropylene plate (Weidmann #23490-101). Then 10 μl of antibodies diluted in assay buffer (double concentrated), at a start concentration of 100 μg/ml, serially diluted 1:4 were added to the plate. After 90 minutes incubation at 4° C., 60 μl assay buffer was added followed by a centrifuge step (330×g, 5 min) and an aspirating step (BioTek washer 405H) where 60 μl of supernatant were discarded. 20 μl of detection antibody (Alpaca anti rabbit IgG Chromotek #srbAF647-1) diluted in assay buffer (double concentrated) to a final concentration of 0.5 μg/ml was added to all Wells followed by 1 hour incubation time at room temperature. The cells were then subjected to two washing steps with 40 μl and 60 μl assay buffer as described above and then resuspended in 20 μl assay buffer. Cell binding was measured on an iQue Screener Plus high throughput FACS device from Sartorius/Intellicyt.

Binder | binding result [1] | binding result [2] | EC50 [3]
P1AI5016 (antibody, human IgG1, V domains shown) VH: EVQLVESGGGLVQPGGSLRLSCAASGFNIKDTYMHWVRQAPGKGLEWVGRIDPANGNSKYADSVKGRFTISADTSKNTAYLQMNSLRAEDTAVYYCAPFGYYVSDYAMAYWGQGTTVTVSS VL: EIVLTQSPATLSLSPGERATLSCRAGESVDIFGVGFLHWYQQKPGQAPRLLIYRGSNRATGIPARFSGSGSGTDFTLTISSLEPEDFAVYYCQQTVEYPYTFGQGTKLEIK | no binding | no binding | 0.588 µg/mL
P1AI5017 (antibody, human IgG1, V domains shown) VH: EVQLVESGGGLVQPGGSLRLSCAASGFNIKDTYMHWVRQAPGKGLEWVGRIDPANGNSKYADSVKGRFTISADTSKNTAYLQMNSLRAEDTAVYYCAPFGYYVSDYAMAYWGQGTTVTVSS VL: EIVLTQSPATLSLSPGERATLSCRAGESVDIFGVGFLHWYQQKPGQAPRLLIYRGSNRATGIPARFSGSGSGTDFTLTISSLEPEDFAVYYCQQTSEYPYTFGQGTKLEIK | no binding | no binding | 0.762 µg/mL
P1AI5018 (antibody, human IgG1, V domains shown) VH: EVQLVESGGGLVQPGGSLRLSCAASGFNIKDTYMHWVRQAPGKGLEWVGRIDPANGNSKYADSVKGRFTISADTSKNTAYLQMNSLRAEDTAVYYCAPFGYYVSDYAMAYWGQGTTVTVSS VL: EIVLTQSPATLSLSPGERATLSCRAGESVDIFGVGFLHWYQQKPGQAPRLLIYRGSNRATGIPARFSGSGSGTDFTLTISSLEPEDFAVYYCQQTTEYPYTFGQGTKLEIK | no binding | no binding | 0.65 µg/mL
P1AI5031 (antibody, human IgG1, V domains shown, also called 24_A55M) VH: EVQLVESGGGLVQPGGSLRLSCAASGFNIKDTYMHWVRQAPGKGLEWVGRIDPANGNSKYADSVKGRFTISADTSKNTAYLQMNSLRAEDTAVYYCAPFGYYVSDYAMAYWGQGTTVTVSS VL: EIVLTQSPATLSLSPGERATLSCRAGESVDIFGVGFLHWYQQKPGQAPRLLIYRGSNRMTGIPARFSGSGSGTDFTLTISSLEPEDFAVYYCQQTNEDPYTFGQGTKLEIK | no binding | no binding | 2.42 µg/mL
